Source: patent US20070259336A1

Experiments:
[1] = biological target: serum 12, head and neck cancer patient (Table 1) (human); assay: 5 ug MBP competitor preincubated with serum 12, then IP of Ruc-p53
[2] = biological target: serum 15, head and neck cancer patient (Table 1) (human); assay: 5 ug MBP competitor preincubated with serum 15, then IP of Ruc-p53
[3] = biological target: serum 33, colon cancer patient (Table 1) (human); assay: 5 ug MBP competitor preincubated with serum 33, then IP of Ruc-p53
[4] = biological target: serum 34, colon cancer patient (Table 1) (human); assay: 5 ug MBP competitor preincubated with serum 34, then IP of Ruc-p53
[5] = biological target: serum 22, breast cancer patient (Table 1) (human); assay: 5 ug MBP competitor preincubated with serum 22, then IP of Ruc-Smad4
[6] = biological target: serum 25, breast cancer patient (Table 1) (human); assay: 5 ug MBP competitor preincubated with serum 25, then IP of Ruc-c-Myc
[7] = biological target: serum 27, breast cancer patient (Table 1) (human); assay: 5 ug MBP competitor preincubated with serum 27, then IP of Ruc-K-Ras
[8] = biological target: serum 32, colon cancer patient (Table 1) (human); assay: 5 ug MBP competitor preincubated with serum 32, then IP of Ruc-K-Ras
[9] = biological target: serum 34, colon cancer patient (Table 1) (human); assay: 5 ug MBP competitor preincubated with serum 34, then IP of Ruc-K-Ras
[10] = biological target: serum 35, colon cancer patient (Table 1) (human); assay: 5 ug MBP competitor preincubated with serum 35, then IP of Ruc-K-Ras
[11] = biological target: serum 36, colon cancer patient (Table 1) (human); assay: 5 ug MBP competitor preincubated with serum 36, then IP of Ruc-Smad4
[12] = biological target: serum 24, breast cancer patient (Table 1) (human); assay: 5 ug MBP competitor preincubated with serum 24, then IP of Ruc-β-catenin-Δ1

percent competition [1]: 21%
percent competition [2]: 20%
percent competition [3]: 7%
percent competition [4]: 11%
percent competition [5]: 4%
percent competition [6]: 0%
percent competition [7]: 5%
percent competition [8]: 25%
percent competition [9]: 4%
percent competition [10]: 16%
percent competition [11]: 0%
percent competition [12]: 23%
B1: MBP fusion containing the SPEC2 cDNA (protein, UniProt Q9NRR3 1-84, looked up, not shown: large carriers)
chain: MSEFWLCFNCCIAEQPQPKRRRRIDRSMIGEPTNFVHTAHVGSGDLFSGMNSVSSIQNQMQSKGGYGGGMPANVQMQLVDTKAG
